Measured values published in US20220227863A1.

Target: human ILT3 on cells (human) (UniProt Q8NHJ6)
Assay: flow cytometry on THP1 cells, enumeration of the ILT3 antigen density with clone ZM4.1; unit not given

Sequence of human ILT3 on cells (human) (Q8NHJ6 22-448 D223G/Q414R): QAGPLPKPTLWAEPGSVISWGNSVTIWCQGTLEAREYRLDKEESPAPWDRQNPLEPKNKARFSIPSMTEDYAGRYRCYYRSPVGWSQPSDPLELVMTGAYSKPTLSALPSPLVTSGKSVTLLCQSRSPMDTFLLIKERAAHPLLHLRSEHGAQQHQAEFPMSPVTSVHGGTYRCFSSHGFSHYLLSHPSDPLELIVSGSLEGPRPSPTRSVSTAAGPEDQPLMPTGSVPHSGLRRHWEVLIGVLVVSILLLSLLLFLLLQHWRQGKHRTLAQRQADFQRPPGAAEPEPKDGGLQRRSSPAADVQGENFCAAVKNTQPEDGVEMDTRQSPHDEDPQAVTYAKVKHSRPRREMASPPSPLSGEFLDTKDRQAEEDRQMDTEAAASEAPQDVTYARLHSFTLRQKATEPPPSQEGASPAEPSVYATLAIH

- Ag density: 147000
Substance: mouse anti-ILT3 monoclonal antibody, clone ZM4.1
